Each block holds one binder with its values, some of them ahead of it.
How the values were obtained:
[1] = target: T1, human TROP2 on FaDu and HPAF-II cells (human, UniProt P09758 27-323); experiment: flow cytometry on FaDu and HPAF-II cells, Penta-His Alexa Fluor 488 detection (rMFI)
T1 construct: whole, on cells
T1 sequence (looked up): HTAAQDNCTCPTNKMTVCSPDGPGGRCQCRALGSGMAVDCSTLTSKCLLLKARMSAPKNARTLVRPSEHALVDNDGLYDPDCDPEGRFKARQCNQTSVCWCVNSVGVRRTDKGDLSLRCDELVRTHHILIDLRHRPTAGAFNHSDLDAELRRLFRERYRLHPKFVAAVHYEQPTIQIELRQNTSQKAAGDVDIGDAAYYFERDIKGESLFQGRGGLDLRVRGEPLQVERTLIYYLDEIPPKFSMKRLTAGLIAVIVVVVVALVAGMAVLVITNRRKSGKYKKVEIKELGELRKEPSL
Protocol: The cells were washed twice with PBS containing 5% FBS, then adjusted to a concentration of 1×10⁶ cells/mL with PBS containing 5% FBS, added at a concentration of 100 μL/well to a 96-well U-bottomed microplate, and centrifuged to remove a supernatant. […] The cells were washed twice with PBS containing 5% FBS.

[2] = target: T2, human CD3εγ single-chain antigen (human); experiment: complex mixed at a molar ratio of 1:2, purified by gel filtration and crystallized
T2 construct: also called scCD3εγ; His-scCD3 antigen
T2 chain: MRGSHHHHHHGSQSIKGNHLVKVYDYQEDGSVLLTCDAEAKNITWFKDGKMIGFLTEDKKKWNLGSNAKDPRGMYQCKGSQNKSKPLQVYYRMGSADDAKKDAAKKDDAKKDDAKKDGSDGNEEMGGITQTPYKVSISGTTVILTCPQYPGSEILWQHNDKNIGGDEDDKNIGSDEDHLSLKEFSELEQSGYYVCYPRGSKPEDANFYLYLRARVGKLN
Protocol: The buffer solution was replaced with 10 mM Tris HCl (pH 7.5) and 50 mM NaCl using Amicon Ultra 15 MWCO 10K (Merck Millipore), and the resulting solution was concentrated to 3.5 mg/mL. This concentrate was purified by gel filtration chromatography using Superdex 200 10/300GL (GE Healthcare Bio-Sciences Corp.). A fraction of the complex was concentrated into approximately 4.0 mg/mL using Amicon Ultra 15 MWCO 10K (Millipore).
To 0.5 μL of the protein solution, an equal amount of a precipitant solution (0.1 M MES monohydrate (pH 6.5), 1.6 M ammonium sulfate, and 10% v/v 1,4-dioxane) was added, and the resulting solution was placed in a sealed container containing 0.05 mL of a precipitant solution so that the solutions had no contact with each other. The container was left standing at 25° C. One month later, 0.1 mm×0.05 mm×0.05 mm rod-like crystals were obtained.

[3] = target: T3, human CD3 on human PBMC (human, UniProt P07766 23-207); experiment: flow cytometry on human PBMC, Penta-His Alexa Fluor 488 detection (rMFI)
T3 construct: Native CD3 complex on T cells in PBMC; the other chains of the complex are native; also called human CD3 (PBMC)
Protocol: Commercially available human PBMC (Cellular Technology Ltd. (CTL)) was adjusted to an appropriate concentration with PBS containing 5% FBS. LIVE/DEAD Fixable Near-IR Dead Cell Stain Kit (Thermo Fisher Scientific Inc.) and an anti-CD19 antibody (Beckman Coulter Inc.) were added to the cells, which were then left standing at 4° C. for 30 minutes. The cells were washed twice with PBS containing 5% FBS, then adjusted to a concentration of 1×10⁶ cells/mL with PBS containing 5% FBS, added at a concentration of 100 μL/well to a 96-well U-bottomed microplate, and centrifuged to remove a supernatant. […] The cells were washed twice with PBS containing 5% FBS. Then, Penta-His Alexa Fluor 488 (Qiagen N.V.) diluted with PBS containing 5% FBS was added at a concentration of 30 μL/well, and the plate was left standing at 4° C. for 30 minutes. The cells were washed twice with PBS containing 5% FBS and then resuspended in PBS containing 5% FBS, followed by detection using a flow cytometer (FACSCanto™ II; Becton, Dickinson and Company). The data was analyzed using Flowjo (Tree Star Inc.). The mean fluorescence intensity (MFI) of Alexa Fluor 488 in a fraction free of dead cells and CD19-positive cells was calculated. The MFI value of the scFv-unsupplemented sample was subtracted from the MFI value of the scFv-supplemented sample to calculate a relative value of MFI (rMFI).

[4] = target: T4, CD3 immobilized on a sensor chip (Example 7)-1-2); experiment: SPR (BIAcore T-200), CD3 immobilized, scFv injected at five concentrations; concentration giving 1/2 Rmax
T4 construct: the text says only 'CD3 immobilized on a sensor chip'; also called human CD3
Protocol: Five different concentrations of the scFv were injected into CD3 immobilized on a sensor chip. Rmax was estimated from the resulting response, and the antibody concentration that reached 1/2 thereof was defined as the dissociation constant of the scFv for CD3.

[5] = target: T5, cynomolgus monkey CD3 on cynomolgus monkey PBMC or T cell line HSC-F (cynomolgus monkey, UniProt Q95LI5 22-198); experiment: flow cytometry on cynomolgus monkey PBMC
T5 construct: whole, on cells; Native CD3 complex on monkey T cells; also called cynomolgus monkey CD3 (PBMC); cynomolgus monkey CD3 antigen
T5 sequence (Q95LI5 22-198): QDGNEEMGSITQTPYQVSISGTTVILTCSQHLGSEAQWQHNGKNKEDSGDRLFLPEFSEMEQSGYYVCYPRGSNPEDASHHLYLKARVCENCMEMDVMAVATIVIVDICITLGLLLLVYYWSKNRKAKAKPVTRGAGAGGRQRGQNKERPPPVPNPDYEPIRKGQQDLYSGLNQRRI

binding result [1]: binds
B1: HT1-11 scFv (humanized anti-TROP2 scFv) (scFv)
scFv: QVQLVQSGAEVKKPGASVKVSCKASGYTFTTAGMQWVRQAPGQGLEWMGWINTHSGVPKYAEDFKGRVTISADTSTSTAYLQLSSLKSEDTAVYYCARSGFGSSYWYFDVWGQGTLVTVSSGGGGSGGGGSGGGGSDIQMTQSPSSLSASVGDRVTITCKASQDVSTAVAWYQQKPGKAPKLLIYSASYRYTGVPSRFSGSGSGTDFTLTISSLQPEDFAVYYCQQHYITPLTFGQGTKLEIKRTGAAAHHHHHH
notes: The scFv was detected through its His tag

binding result [2]: binds
binding result [3]: binds
Kd [4]: 4.5 nM
binding result [5]: binds
B2: C3E-7034 (humanized anti-CD3 scFv) (scFv)
scFv: GEVQLVESGGGLVQPGGSLRLSCAASGVTFNYYGMSWIRQAPGKGLEWVASITNSGGRIYYPDSVKGRFTISRENTQKTLYLQMNSLRAEDTAVYYCTLDGRDGWVAYWGQGTLVTVSSGGGGSGGGGSGGGGSNFMLTQPHSVSESPGKTVTISCKRNTGNIGSNYVNWYQQHEGSSPTTIIYRDDKRPDGVSDRFSGSIDRSSKSASLTISNLKTEDEADYFCQSYSSGFIFGGGTKLTVLGAAAGAGGDYKDDDDKGAAAHHHHHH

Reference: patent US20190359712A1 (Daiichi Sankyo, published 2019)
